Publication PMC9044958

The substances below were run against recombinant Fc-tagged VEGFR2 extracellular domain (VEGFR2-ECD) (UniProt P35968) (assay: SPR; Biacore 8K, single-cycle mode, 25°C, HBS-P+ buffer; Fc-tagged VEGFR2-ECD (180 nM) captured on a protein A sensor chip at about 1,400 to 1,700 RU; analytes at 1.25, 2.5, 5, 10 and 20 nM, 30 uL/min; KD from the first on and off rates of the bivalent model).
Chain of UniProt P35968 (P35968 20-764): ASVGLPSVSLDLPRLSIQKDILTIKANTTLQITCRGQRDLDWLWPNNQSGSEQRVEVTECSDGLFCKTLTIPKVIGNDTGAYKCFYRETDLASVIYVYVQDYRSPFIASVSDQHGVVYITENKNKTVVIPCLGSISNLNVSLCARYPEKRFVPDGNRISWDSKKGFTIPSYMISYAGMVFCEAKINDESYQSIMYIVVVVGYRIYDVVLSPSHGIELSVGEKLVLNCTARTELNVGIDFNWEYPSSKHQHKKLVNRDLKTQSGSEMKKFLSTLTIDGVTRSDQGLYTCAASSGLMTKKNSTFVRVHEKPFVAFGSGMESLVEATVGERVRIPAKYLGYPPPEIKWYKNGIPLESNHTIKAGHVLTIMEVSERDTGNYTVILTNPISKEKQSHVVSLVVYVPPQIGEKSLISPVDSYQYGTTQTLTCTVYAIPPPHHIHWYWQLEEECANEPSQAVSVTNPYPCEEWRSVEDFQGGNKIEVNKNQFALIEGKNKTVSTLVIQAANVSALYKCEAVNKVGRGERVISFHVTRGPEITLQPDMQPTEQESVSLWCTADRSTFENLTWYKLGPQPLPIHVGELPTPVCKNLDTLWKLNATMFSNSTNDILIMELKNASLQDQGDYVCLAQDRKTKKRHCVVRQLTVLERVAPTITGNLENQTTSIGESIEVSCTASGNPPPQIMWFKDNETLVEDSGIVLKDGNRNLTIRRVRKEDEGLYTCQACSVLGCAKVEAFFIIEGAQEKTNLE
recombinant human VEGF-A165 (ligand) was tested, and the Kd was 6.91 nM. Work on “B. bacilliformis-derived BafA passenger domain (BafABba) (domain or fragment)” yielded a Kd of 91.3 nM. “B. henselae-derived BafA passenger domain (BafABhe) (domain or fragment)” was tested, and the Kd was 2.08 nM.
